The supplement of paper PMC10567573

B1: C1orf137 (parent)
chain: LPQETNLTLKVCKPQAPQKLDPTL
B2: NEK8 (parent)
chain: VVGTPCYISPELCEGKPYNQKSDI

Variants of: B1
Experiment: protein stability index of a GFP-peptide fusion (GPS, HEK-293T) (PSI 1-6); higher = more stable
Conditions: c terminus: a fixed tail appended
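Further: lentivirally expressed fusions sorted by FACS into six bins by GFP to DsRed ratio, PSI derived from sequencing read proportions per bin multiplied by bin number.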

Protein stability index of substitutions, site by site:
P22: A 3.16 | F 2.35 | H 3.13 | V 2.87 | R 3.84 | C 2.95 | T 3.54 | N 3.38 | E 4.13 | W 2.83 | G 3.39 | K 4 | Y 3.06 | S 2.87 | L 2.93 | D 4.38 | Q 4.25 | I 2.08 | M 2.98
L20: D 4.98 | E 5.09 | T 4.5 | V 4.03 | Y 4.46 | A 4.75 | R 4.42 | Q 4.47 | P 4.48 | W 3.51 | C 4.18 | F 3.31 | H 4.43 | S 4.34 | K 4.9 | G 4.91 | N 4.29 | M 4.13 | I 3.42
K19: L 3.01 | W 2.36 | F 2.96 | S 3.72 | T 4.06 | D 3.92 | R 3.55 | A 3.8 | Q 3.85 | G 3.5 | V 4.06 | N 3.56 | I 2.54 | M 3.53 | P 3.96 | C 2.92 | H 3.78 | E 3.77 | Y 3.36
Q18: E 3.23 | I 3.92 | T 3.82 | D 4.59 | P 3.75 | G 3.59 | H 3.69 | N 3.52 | M 3.28 | F 2.39 | A 4.65 | R 3.8 | K 3.97 | V 3.56 | C 3.79 | L 3.31 | S 3.58 | Y 3.13
L24: W 3.3 | T 4.39 | M 3.94 | I 4.1 | E 4.8 | C 4.35 | F 4.32 | S 4.53 | Q 4.37 | R 4.33 | N 4.56 | H 4.75 | D 5.42 | K 4.21 | V 4.52 | A 4.34 | G 4.52 | Y 3.37
D21: A 2.65 | I 2.74 | G 3.3 | V 2.87 | N 3.17 | T 3.7 | P 3.35 | W 2.36 | H 2.86 | L 2.44 | M 2.86 | C 3.05 | S 3.85 | K 3.77 | R 3.19 | F 2.66 | Y 2.73 | E 3.98 | Q 3.19
T23: V 3.4 | H 3.44 | Y 2.94 | W 2.48 | L 3.06 | D 4.8 | I 3.37 | E 4.91 | R 3.48 | F 2.98 | M 3.32 | N 4.2 | Q 4.21 | K 4.16 | C 3.89 | A 3.47 | G 3.8 | S 3.85

Variants of: B2
Experiment: as above
Conditions: c terminus: a fixed tail appended

Protein stability index: each site, then its substitutions
P10: T 2.74 | V 1.75 | W 1.9 | E 3.6 | A 2.96 | M 2.24 | G 3.56 | S 3.39 | I 1.49 | K 3.56 | C 2.22 | Q 3.49 | D 3.23 | H 3.66 | R 2.98 | L 2.01 | Y 1.91 | F 2.03 | N 3.44
V1: S 4.03 | L 3.1 | T 3.76 | K 4.06 | P 4.25 | A 3.78 | R 3.74 | M 3.42 | G 4.28 | N 4.48 | F 1.22 | H 2.77 | D 4.53 | I 2.32 | C 3.31 | E 4.48 | W 2.62 | Y 2.88 | Q 4.14
T4: Y 2.25 | K 3.45 | A 2.95 | S 3.68 | G 3.34 | P 3.46 | W 2.13 | V 1.99 | M 2.78 | Q 4.19 | I 1.75 | E 4.08 | D 3.72 | R 2.79 | L 2.39 | N 3.87 | H 3.02 | C 2.85 | F 2.21
I8: A 4.4 | V 4.03 | M 2.89 | L 3.48 | T 3.77 | W 2.27 | D 4.18 | K 4.14 | N 4.4 | S 3.98 | R 3.7 | Y 2.31 | G 4.42 | H 3.2 | E 4.5 | C 3.05 | Q 4.42 | P 4.29 | F 2.9
P5: E 3.53 | S 3.36 | N 3.21 | Y 2.06 | G 3.27 | Q 3.62 | V 1.89 | A 3.05 | W 1.66 | R 2.76 | M 2.75 | T 3.32 | F 1.16 | C 2.56 | K 3.18 | D 2.98 | I 1.64 | H 3.14 | L 2.28
C6: K 3.48 | I 3.07 | W 2.5 | T 3.26 | R 3.88 | N 2.38 | H 2.47 | D 4.4 | Q 4.11 | P 3.38 | M 3.56 | Y 2.02 | F 2.14 | E 4.34 | A 2.81 | S 3.08 | L 3.25 | G 3.39 | V 2.71
V2: H 3.68 | P 3.44 | N 3.63 | A 3.49 | W 2.8 | S 3.75 | C 2.89 | K 3.93 | I 3.56 | G 3.66 | Q 3.77 | M 3.23 | L 3.58 | E 4.59 | Y 3.23 | R 3.4 | D 3.9 | F 3.12 | T 3.73
S9: M 2.4 | I 2.32 | V 2.31 | T 2.61 | Y 1.55 | N 2.31 | Q 2.62 | A 2.45 | E 3.16 | L 1.68 | K 3.61 | G 2.99 | P 3.58 | W 2.25 | D 3.44 | F 1.96 | H 2.04 | R 2.48 | C 1.94
Y7: W 2.82 | F 3.05 | P 4.16 | V 4.04 | T 4.36 | Q 4.35 | M 3.97 | G 3.98 | C 4.16 | S 3.69 | N 4.52 | A 3.94 | K 3.92 | L 3.83 | R 3.96 | H 3.87 | D 4.69 | I 4.08 | E 4.5
G3: N 3.52 | I 1.8 | F 1.48 | D 3.26 | A 2.31 | Q 2.5 | E 2.7 | H 2.74 | S 3.01 | V 2.07 | K 2.9 | C 2.23 | T 3.01 | P 3.38 | W 2.05 | R 2.74 | L 1.63 | Y 1.65 | M 1.84
E11: A 2.68 | L 1.8 | M 2.32 | G 2.54 | H 2.03 | C 1.68 | N 2.66 | Q 2.31 | D 3.16 | P 1.76 | I 2.52 | F 1.5 | K 2.74 | R 2.49
